{"source": "paper PMC4825646", "about": "“MEC-10 and MEC-19 Reduce the Neurotoxicity of the MEC-4(d) DEG/ENaC Channel in Caenorhabditis elegans” (G3: Genes|Genomes|Genetics, 2016)", "proteins": {"B1": {"name": "C-terminally EGFP-tagged MEC-4 (natural protein, C. elegans, UniProt P24612 1-768, looked up)", "chain": "MSWMQNLKNYQHLRDPSEYMSQVYGDPLAYLQETTKFVTEREYYEDFGYGECFNSTESEVQCELITGEFDPKLLPYDKRLAWHFKEFCYKTSAHGIPMIGEAPNVYYRAVWVVLFLGCMIMLYLNAQSVLDKYNRNEKIVDIQLKFDTAPFPAITLCNLNPYKASLATSVDLVKRTLSAFDGAMGKAGGNKDHEEEREVVTEPPTTPAPTTKPARRRGKRDLSGAFFEPGFARCLCGSQGSSEQEDKDEEKEEELLETTTKKVFNINDADEEWDGMEEYDNEHYENYDVEATTGMNMMEECQSERTKFDEPTGFDDRCICAFDRSTHDAWPCFLNGTWETTECDTCNEHAFCTKDNKTAKGHRSPCICAPSRFCVAYNGKTPPIEIWTYLQGGTPTEDPNFLEAMGFQGMTDEVAIVTKAKENIMFAMATLSMQDRERLSTTKRELVHKCSFNGKACDIEADFLTHIDPAFGSCFTFNHNRTVNLTSIRAGPMYGLRMLVYVNASDYMPTTEATGVRLTIHDKEDFPFPDTFGYSAPTGYVSSFGLRLRKMSRLPAPYGDCVPDGKTSDYIYSNYEYSVEGCYRSCFQQLVLKECRCGDPRFPVPENARHCDAADPIARKCLDARMNDLGGLHGSFRCRCQQPCRQSIYSVTYSPAKWPSLSLQIQLGSCNGTAVECNKHYKENGAMVEVFYEQLNFEMLTESEAYGFVNLLADFGGQLGLWCGISFLTCCEFVFLFLETAYMSAEHNYSLYKKKKAEKAKKIASGSF", "notes": "MEC-4, C. elegans DEG/ENaC protein, wild type; construct described in Chen et al. (2015); also called MEC-4::EGFP; source: Xenopus laevis oocytes, cRNA injected, on the oocyte surface; not shown: EGFP, C-terminal, kept"}}, "molecular_target": "the molecule itself", "experiment": "single-molecule photobleaching step counting (TIRF microscopy); MEC-4::EGFP on the Xenopus oocyte surface in the presence of MEC-19, 1-2 d after cRNA injection; observed bleaching steps compared with the binomial distribution predicted for trimers"}
{"protein": "B1", "values": [{"measurement": "stoichiometry N", "value": 3}]}
